The values below come from patent EP1674575A2 (LA JOLLA INSTITUTE FOR ALLERGY AND IMMUNOLOGY, dated 2006).

B1: LIGHTt66-FLAG mutant Y173F (ligand, human, UniProt O43557 67-240, looked up, not shown: small tags and cut ends)
chain: EMVTRLPDGPAGSWEQLIQERRSHEVNPAAHLTGANSSLTGSGGPLLWETQLGLAFLRGLSYHDGALVVTKAGYYYIYSKVQLGGVGCPLGLASTITHGLYKRTPRFPEELELLVSQQSPCGRATSSSRVWWDSSFLGGVVHLEAGEKVVVRVLDERLVRLRDGTRSYFGAFMV
notes: range 67-240; Homotrimer, from transiently transfected 293T cells
B3: LIGHTt66-FLAG mutant L120Q (ligand, human, UniProt O43557 67-240, looked up, not shown: small tags and cut ends)
chain: EMVTRLPDGPAGSWEQLIQERRSHEVNPAAHLTGANSSLTGSGGPLLWETQLGQAFLRGLSYHDGALVVTKAGYYYIYSKVQLGGVGCPLGLASTITHGLYKRTPRYPEELELLVSQQSPCGRATSSSRVWWDSSFLGGVVHLEAGEKVVVRVLDERLVRLRDGTRSYFGAFMV
notes: as for B1
B4: LIGHTt66-FLAG mutant Q117T (ligand, human, UniProt O43557 67-240, looked up, not shown: small tags and cut ends)
chain: EMVTRLPDGPAGSWEQLIQERRSHEVNPAAHLTGANSSLTGSGGPLLWETTLGLAFLRGLSYHDGALVVTKAGYYYIYSKVQLGGVGCPLGLASTITHGLYKRTPRYPEELELLVSQQSPCGRATSSSRVWWDSSFLGGVVHLEAGEKVVVRVLDERLVRLRDGTRSYFGAFMV
notes: as for B1
B6: HVEM:Fc (extracellular region of HVEM, 1 to K184, fused to the Fc region of human IgG1) (Fc fusion, UniProt Q92956 39-184, looked up)
chain: LPSCKEDEYPVGSECCPKCSPGYRVKEACGELTGTVCEPCPPGTYIAHLNGLSKCLQCQMCDPAMGLRASRNCSRTENAVCGCSPGHFCIVQDGDHCAACRAYATSSPGQRVQKGGTESQDTLCQNCPPGTFSPNGTLEECQHQTK
notes: range 1-184; Bivalent chimeric protein made in baculovirus; also called huHVEM:Fc; hu HVEM:Fc; not shown: Fc region of human IgG1
B8: mouse LTβR:Fc (amino acid residues 1 to Met221 of the extracellular domain of mouse LTβR) (Fc fusion, UniProt P50284 31-221, looked up)
chain: QLVPPYRIENQTCWDQDKEYYEPMHDVCCSRCPPGEFVFAVCSRSQDTVCKTCPHNSYNEHWNHLSTCQLCRPCDIVLGFEEVAPCTSDRKAECRCQPGMSCVYLDNECVHCEEERLVLCQPGTEAEVTDEIMDTDVNCVPCKPGHFQNTSSPRARCQPHTRCEIQGLVEAAPGTSYSDTICKNPPEPGAM
notes: range 1-221; also called mLTβR:Fc; murine LTβR:Fc; not shown: Fc part

Where only a bound is given, the exact number is not on record here.

Test [1] deals with B8. As to the kind of experiment: ELISA, receptor:Fc capture, anti-FLAG detection.
Test [2] deals with B6. As to the kind of experiment: SPR (BIAcore).
In test [3] the target is T1, human LTβR:Fc (human, UniProt P36941 31-227, limits assumed).
T1 construct: also called huLTβR:Fc; hu LTβR:Fc; not shown: Fc region of human IgG1
As to the kind of experiment: SPR (BIAcore), receptor:Fc amine-coupled, LIGHT mutant as analyte 100-500 nM. On the technique in general: SPR reads the build-up and loss of mass on a sensor chip optically.

The target in test [4] is LTβR (lymphotoxin β receptor) expressed by cells (human, UniProt P36941 31-435). As to the kind of experiment: cell-based or functional assay.
In test [5] the target is B3. As to the kind of experiment: ELISA, receptor:Fc capture, anti-FLAG detection.
Test [6] has as its target B1. The test can be described thus: ELISA, receptor:Fc capture, anti-FLAG detection. Background: An ELISA detects its analyte on a solid surface through an enzyme-linked reagent.
The target of test [7] is T2, p30 (LIGHT), the 30 kDa cell surface HVEM ligand of activated II-23.D7 cells and human T cells (human, UniProt O43557 1-240).
T2 construct: whole, on cells; Endogenous protein, tested on the cell surface in flow cytometry and from detergent extracts in precipitations; also called 30 kDa protein
The test can be described thus: competition for HVEM:Fc binding to activated II-23.D7 cells, flow cytometry. In general terms: A flow cytometer gives signals particle by particle.

In test [8] the target is T3, LTα homotrimer (UniProt P01374 35-205).
T3 construct: also called recombinant LTα; secreted LTα
T3 sequence (looked up): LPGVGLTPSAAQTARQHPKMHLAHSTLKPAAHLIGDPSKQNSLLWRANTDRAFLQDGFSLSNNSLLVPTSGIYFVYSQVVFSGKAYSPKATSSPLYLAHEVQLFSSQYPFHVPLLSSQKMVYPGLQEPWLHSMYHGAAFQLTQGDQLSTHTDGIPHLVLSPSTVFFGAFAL
As to the kind of experiment: precipitation of 35S-labeled secreted proteins, SDS-PAGE.

The target of test [9] is B1. The test can be described thus: SPR (BIAcore).
Test [10] concerns the target B4. The test can be described thus: SPR (BIAcore), receptor:Fc amine-coupled, LIGHT mutant as analyte 100-500 nM.
Test [11] addresses B1. Described as above.
For test [12], the target named is T4, TNF (UniProt P01375 77-233).
T4 construct: also called TNF (17 kDa)
As to the kind of experiment: precipitation of 35S-labeled secreted proteins of II-23.D7 cells, SDS-PAGE.

The target in test [13] is T5, LTαTyr108Phe (UniProt P01374 35-205).
T5 construct: also called LTαY108F; Y108F
T5 sequence (looked up): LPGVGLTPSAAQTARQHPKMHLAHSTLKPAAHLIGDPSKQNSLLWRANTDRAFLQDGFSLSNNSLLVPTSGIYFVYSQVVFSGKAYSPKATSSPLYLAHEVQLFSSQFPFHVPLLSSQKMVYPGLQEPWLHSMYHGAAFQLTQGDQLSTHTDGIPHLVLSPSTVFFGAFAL
As to the kind of experiment: competition for HVEM:Fc binding to II-23.D7 cells, flow cytometry (Figure 3).

Test [14] deals with T2, p30 (LIGHT), the 30 kDa cell surface …. As to the kind of experiment: flow cytometry, saturation binding to activated II-23.D7 cells.
For test [15], the target named is T6, LTα1β2 complex (LTβ 33 kDa and LTα 23-25 kDa) from detergent extracts of PMA activated II-23.D7 cells (human, UniProt P01374 35-205; Q06643 1-244).
T6 construct: Endogenous membrane complex, precipitated from detergent extracts; also called LTβ and LTα complex
T6 sequence (looked up) 1: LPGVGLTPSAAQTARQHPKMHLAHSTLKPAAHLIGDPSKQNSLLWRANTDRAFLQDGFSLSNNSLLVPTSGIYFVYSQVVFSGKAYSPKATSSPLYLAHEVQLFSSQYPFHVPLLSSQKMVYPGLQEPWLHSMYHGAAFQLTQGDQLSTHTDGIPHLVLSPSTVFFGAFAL
T6 sequence (looked up) 2: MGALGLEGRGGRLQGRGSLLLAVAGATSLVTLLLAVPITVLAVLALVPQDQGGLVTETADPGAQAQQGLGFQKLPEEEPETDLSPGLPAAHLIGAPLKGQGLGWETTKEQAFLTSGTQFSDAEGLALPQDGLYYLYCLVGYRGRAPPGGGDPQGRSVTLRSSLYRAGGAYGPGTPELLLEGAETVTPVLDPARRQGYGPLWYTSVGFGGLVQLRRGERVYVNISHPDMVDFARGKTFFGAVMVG
As to the kind of experiment: precipitation with murine LTβR:Fc, 2D electrophoresis (Figure 4A).

Test [16] concerns the target T2, p30 (LIGHT), the 30 kDa cell surface …. The test can be described thus: precipitation from detergent extracts of activated II-23.D7 cells; competition by flow cytometry.
Test [17] concerns the target T7, gD-1 (Δ290-299t) (herpes simplex virus type 1, UniProt Q69091 26-331).
T7 construct: also called gD-1 (Δ1290 - 299t)
The test can be described thus: binding inhibition, flow cytometry.

T1 sequence (P36941 31-227 limits assumed): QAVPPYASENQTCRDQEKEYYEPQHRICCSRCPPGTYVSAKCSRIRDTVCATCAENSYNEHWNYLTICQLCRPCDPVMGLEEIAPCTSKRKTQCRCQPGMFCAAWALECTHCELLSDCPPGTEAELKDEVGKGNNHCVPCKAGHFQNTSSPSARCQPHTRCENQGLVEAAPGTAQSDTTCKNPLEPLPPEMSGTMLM
T7 sequence (Q69091 26-314, tags or fused parts left off): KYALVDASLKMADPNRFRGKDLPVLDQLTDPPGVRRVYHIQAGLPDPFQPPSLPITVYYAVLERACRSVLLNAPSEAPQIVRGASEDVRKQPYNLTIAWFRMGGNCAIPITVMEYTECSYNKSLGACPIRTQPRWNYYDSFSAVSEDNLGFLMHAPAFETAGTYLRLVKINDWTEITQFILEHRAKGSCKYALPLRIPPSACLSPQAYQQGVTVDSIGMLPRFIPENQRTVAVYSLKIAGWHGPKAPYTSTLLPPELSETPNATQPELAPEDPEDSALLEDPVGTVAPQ
T4 sequence (P01375 77-233 limits assumed): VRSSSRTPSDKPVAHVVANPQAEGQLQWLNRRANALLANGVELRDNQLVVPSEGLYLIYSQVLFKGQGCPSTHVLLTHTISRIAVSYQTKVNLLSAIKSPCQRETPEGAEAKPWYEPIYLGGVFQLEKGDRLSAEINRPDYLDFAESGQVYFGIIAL

What is called Kd is a measure of binding affinity in units of concentration. Lower therefore signals a tighter complex. As usually defined, the koff is a measure of how fast the partners let go of each other. The kon is a measure of how fast the partners come together. On to B1, for which, in test [1], the binding result was “no binding”. Besides, the “fold lower affinity than LIGHT t66” value in test [2] is over 40 fold. In [3], binding was put at a Kd of 31 nM, the koff amounted to 0.0011 s⁻¹ and the on-rate constant (kon) worked out at 37000 M⁻¹ s⁻¹. The “fold induction of ICAM expression by NHDF cells (flow cytometry, 20 nM)” value in [4] is 2.5 fold.

B2: mouse HVEM:Fc (mouse HVEM Met1 to Ser205 fused to the Fc region of human IgG1) (Fc fusion, UniProt Q80WM9 39-205, looked up)
chain: QPSCRQEEFLVGDECCPMCNPGYHVKQVCSEHTGTVCAPCPPQTYTAHANGLSKCLPCGVCDPDMGLLTWQECSSWKDTVCRCIPGYFCENQDGSHCSTCLQHTTCPPGQRVEKRGTHDQDTVCADCLTGTFSLGGTQEECLPWTNCSAFQQEVRRGTNSTDTTCSS
notes: range 1-205; also called mHVEM:Fc; murine HVEM:Fc; not shown: Fc region of human IgG1 (printed IgC1) at the 3' end of the HVEM insert
For the molecule B2, the binding result in test [5] was “binds”; in test [6], “no binding”.
In the case of B3, in test [1], the binding result was “binds”.
Turning to B4, in test [3], the Kd came out at 1.5 nM and the koff amounted to 4.5e-05 s⁻¹.

B5: Fas:Fc (Fc fusion, UniProt P25445 26-173, looked up)
chain: QVTDINSKGLELRKTVTTVETQNLEGLHHDGQFCHKPCPPGERKARDCTVNGDEPDCVPCQEGKEYTDKAHFSSKCRRCRLCDEGHGLEVEINCTRTQNTKCRCKPNFFCNSTVCEHCDPCTKCEHGIIKECTLTSNTKCKEEGSRSN
notes: not shown: Fc region of human IgG1
In the case of B5, in test [7], the binding result is given as “no binding”.
By EC50 is commonly meant the midpoint of the concentration-response curve. Read a low EC50 as an effect from little substance. As to B6, the binding result is listed as “binds” in test [8], “no binding” in test [12] and “no binding” in test [13]. The Kd came to 180 nM in test [9], 0.3 nM in test [10] and 173 nM in test [11]. For the same molecule, the kon came out at 20000 M⁻¹ s⁻¹ in test [10] and 19000 M⁻¹ s⁻¹ in [11]. The koff in test [11] was found to be 0.0033 s⁻¹. In test [14], this molecule had an EC50 of about 20 nM.

B7: recombinant soluble LTα1β2 (ligand)
chain 1: LPGVGLTPSAAQTARQHPKMHLAHSTLKPAAHLIGDPSKQNSLLWRANTDRAFLQDGFSLSNNSLLVPTSGIYFVYSQVVFSGKAYSPKATSSPLYLAHEVQLFSSQYPFHVPLLSSQKMVYPGLQEPWLHSMYHGAAFQLTQGDQLSTHTDGIPHLVLSPSTVFFGAFAL
chain 2: QDQGGLVTETADPGAQAQQGLGFQKLPEEEPETDLSPGLPAAHLIGAPLKGQGLGWETTKEQAFLTSGTQFSDAEGLALPQDGLYYLYCLVGYRGRAPPGGGDPQGRSVTLRSSLYRAGGAYGPGTPELLLEGAETVTPVLDPARRQGYGPLWYTSVGFGGLVQLRRGERVYVNISHPDMVDFARGKTFFGAVMVG
Turning to B7, the “fold decrease in relative anti-HCMV activity (against LTα and LIGHT)” value in test [4] was about 10 fold.
In the case of B8, the binding result in [15] was “binds”.

B9: TNFR60:Fc (Fc fusion, UniProt P19438 30-211, looked up)
chain: LVPHLGDREKRDSVCPQGKYIHPQNNSICCTKCHKGTYLYNDCPGPGQDTDCRECESGSFTASENHLRHCLSCSKCRKEMGQVEISSCTVDRDTVCGCRKNQYRHYWSENLFQCFNCSLCLNGTVHLSCQEKQNTVCTCHAGFFLRENECVSCSNCKKSLECTKLCLPQIENVKGTEDSGTT
notes: also called TNFR:Fc; soluble type I TNFR protein (TNFR:Fc); not shown: Fc region of human IgG1
For B9, the binding result in test [16] and in test [17] was “no binding” throughout.
